Laboratory results as given in publication PMC11871226 (Nature Communications, 2025).

Target: Purified human ACSS2 (bacterially expressed) (human, UniProt Q9NR19 1-701)
Assay: pull-down

Sequence of Purified human ACSS2 (bacterially expressed) (Q9NR19 whole entry): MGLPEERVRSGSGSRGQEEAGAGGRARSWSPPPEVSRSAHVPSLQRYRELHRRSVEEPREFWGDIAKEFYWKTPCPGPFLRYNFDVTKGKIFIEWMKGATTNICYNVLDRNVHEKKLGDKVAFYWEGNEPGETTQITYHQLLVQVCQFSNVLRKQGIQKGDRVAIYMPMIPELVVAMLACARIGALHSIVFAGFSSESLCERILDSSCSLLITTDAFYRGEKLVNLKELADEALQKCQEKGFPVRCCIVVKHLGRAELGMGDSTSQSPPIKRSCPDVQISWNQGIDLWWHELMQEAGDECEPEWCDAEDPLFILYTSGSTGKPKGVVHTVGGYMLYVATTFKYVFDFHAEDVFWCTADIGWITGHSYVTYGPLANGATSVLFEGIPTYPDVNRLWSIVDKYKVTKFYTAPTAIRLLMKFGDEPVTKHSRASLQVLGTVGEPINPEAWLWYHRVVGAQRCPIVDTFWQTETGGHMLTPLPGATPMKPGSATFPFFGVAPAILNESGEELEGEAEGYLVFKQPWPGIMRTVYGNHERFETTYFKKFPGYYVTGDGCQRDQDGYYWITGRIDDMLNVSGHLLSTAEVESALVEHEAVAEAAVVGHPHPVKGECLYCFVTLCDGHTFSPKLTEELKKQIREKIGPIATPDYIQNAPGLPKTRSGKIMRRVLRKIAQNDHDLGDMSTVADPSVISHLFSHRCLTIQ

B1: Purified human PAICS (bacterially expressed) (natural protein, UniProt P22234 1-425, looked up)
chain: MATAEVLNIGKKLYEGKTKEVYELLDSPGKVLLQSKDQITAGNAARKNHLEGKAAISNKITSCIFQLLQEAGIKTAFTRKCGETAFIAPQCEMIPIEWVCRRIATGSFLKRNPGVKEGYKFYPPKVELFFKDDANNDPQWSEEQLIAAKFCFAGLLIGQTEVDIMSHATQAIFEILEKSWLPQNCTLVDMKIEFGVDVTTKEIVLADVIDNDSWRLWPSGDRSQQKDKQSYRDLKEVTPEGLQMVKKNFEWVAERVELLLKSESQCRVVVLMGSTSDLGHCEKIKKACGNFGIPCELRVTSAHKGPDETLRIKAEYEGDGIPTVFVAVAGRSNGLGPVMSGNTAYPVISCPPLTPDWGVQDVWSSLRLPSGLGCSTVLSPEGSAQFAAQIFGLSNHLVWSKLRASILNTWISLKQADKKIRECNL
binding result: binds
